Source: patent publication US20230157952A1, “METHOD FOR IMPROVING THE STABILITY OF A PHARMACEUTICAL COMPOSITION COMPRISING A HIGH PENETRATION DRUG, AND THE PHARMACEUTICAL COMPOSITION OBTAINED THEREFROM” (Techfields Inc., priority 2020, published 2023)
Non-standard residues stand in square brackets, D forms with d. *: point of attachment. Arg(NO2) = N=C(NCCC[C@H](N)C(=O)O)N[N+](=O)[O-]; OiPr = CC(C)O*

How the values were obtained:
[1] = Effect of pH value on the stability of the solution (purity); format: physicochemical; details: for Purity(%) at day 1 / Purity(%) at day 30 / Purity(%) at day 90 / Purity(%) at day 180 / Purity(%) at day 360: 5% solution
[2] = Effect of concentration on the stability of the solution (purity over time); details: 1 equivalent sodium acetate in 50% ethanol at 25° C.
[3] = 25% ethanol (after multiple recrystalization), pH 3.7, 25° C.
[4] = 25% ethanol with 0.5 equivalent sodium acetate, pH 3.7, 25° C.
[5] = 25% ethanol with 1 equivalent sodium acetate, pH 4.6, 25° C.
[6] = 25% ethanol with 1.5 equivalent sodium acetate, pH 5.6, 25° C.
[7] = 25% ethanol with HCl, pH 1.0, 25° C.
[8] = 25% ethanol with HCl, pH 2.0, 25° C.
[9] = 25% ethanol with NaOH, pH 7, 25° C.
[10] = 25% ethanol with NaOH, pH 8, 25° C.

## H-Ala-Pro-Gly-Pro-Arg(NO2)—OCH2CH3•HCl (H-APGP[Arg(NO2)]-OEt; also: HCl salt)
[1]; 5% solution in 25% ethanol at 25° C.
  pH at which the solution is stable: 3-6
[1]; 5% solution in 25% ethanol, pH 3-6
  Time the solution can be stored at room temperature: about 3 months
[2]; 0.01 wt %
  Purity at Day 30: 55.6%
  Purity at Day 90: 21.3%
  Purity at Day 180: 0%
  Purity at day 0: 98.3%
[2]; 0.1 wt %
  Purity at Day 30: 65.7%
  Purity at Day 90: 30.2%
  Purity at Day 180: 8.6%
  Purity at day 0: 98.4%
[2]; 1 wt %
  Purity at Day 30: 91.3%
  Purity at Day 90: 75.9%
  Purity at Day 180: 56.6%
  Purity at day 0: 98.5%
[2]; 3 wt %
  Purity at Day 30: 96.8%
  Purity at Day 90: 92.1%
  Purity at Day 180: 85.8%
  Purity at day 0: 98.8%
[2]; 5 wt %
  Purity at Day 30: 97.1%
  Purity at Day 90: 94.4%
  Purity at Day 180: 89.7%
  Purity at day 0: 98.9%
[2]; 7 wt %
  Purity at Day 30: 97.5%
  Purity at Day 90: 95.0%
  Purity at Day 180: 91.3%
  Purity at day 0: 98.9%
[2]; 8 wt %
  Purity at Day 30: 97.6%
  Purity at Day 90: 95.1%
  Purity at Day 180: 91.4%
  Purity at day 0: 98.8%
[2]; 10 wt %
  Purity at Day 30: 97.6%
  Purity at Day 90: 95.2%
  Purity at Day 180: 91.5%
  Purity at day 0: 98.9%
[2]; 15 wt %
  Purity at Day 30: 97.6%
  Purity at Day 90: 95.0%
  Purity at Day 180: 91.4%
  Purity at day 0: 98.8%
[2]; 20 wt %
  Purity at Day 30: 97.5%
  Purity at Day 90: 95.1%
  Purity at Day 180: 91.5%
  Purity at day 0: 98.9%
[2]; 30 wt %
  Purity at Day 30: 97.6%
  Purity at Day 90: 95.1%
  Purity at Day 180: 91.7%
  Purity at day 0: 98.9%
[2]; 50 wt %
  Purity at Day 30: 97.5%
  Purity at Day 90: 95.2%
  Purity at Day 180: 91.6%
  Purity at day 0: 98.8%

## H-Val-Pro-Gly-Pro-Arg(NO2)—OCH(CH3)2•HCl salt (H-VPGP[Arg(NO2)]-OiPr; also: HCl salt)
[1]; [3]
  Purity(%) at day 1: 98.6 ± 0.2%
  Purity(%) at day 30: 98.1 ± 0.2%
  Purity(%) at day 90: 97.2 ± 0.1%
  Purity(%) at day 180: 95.4 ± 0.1%
  Purity(%) at day 360: 92.1 ± 0.2%
[1]; [4]
  Purity(%) at day 1: 98.6 ± 0.2%
  Purity(%) at day 30: 98.2 ± 0.1%
  Purity(%) at day 90: 97.1 ± 0.2%
  Purity(%) at day 180: 95.6 ± 0.2%
  Purity(%) at day 360: 92.0 ± 0.2%
[1]; [5]
  Purity(%) at day 1: 98.6 ± 0.2%
  Purity(%) at day 30: 98.2 ± 0.2%
  Purity(%) at day 90: 97.0 ± 0.1%
  Purity(%) at day 180: 95.6 ± 0.2%
  Purity(%) at day 360: 92.1 ± 0.2%
[1]; [6]
  Purity(%) at day 1: 98.5 ± 0.2%
  Purity(%) at day 30: 97.0 ± 0.2%
  Purity(%) at day 90: 93.8 ± 0.1%
  Purity(%) at day 180: 88.1 ± 0.2%
  Purity(%) at day 360: 80.1 ± 0.3%
[1]; [7]
  Purity(%) at day 1: 98.3 ± 0.2%
  Purity(%) at day 30: 85.0 ± 0.2%
  Purity(%) at day 90: 59.5 ± 0.2%
  Purity(%) at day 180: 43.5 ± 0.3%
  Purity(%) at day 360: 17.6 ± 0.3%
[1]; [8]
  Purity(%) at day 1: 98.4 ± 0.2%
  Purity(%) at day 30: 91.7 ± 0.2%
  Purity(%) at day 90: 84.7 ± 0.3%
  Purity(%) at day 180: 71.7 ± 0.3%
  Purity(%) at day 360: 52.7 ± 0.3%
[1]; [9]
  Purity(%) at day 1: 98.3 ± 0.3%
  Purity(%) at day 30: 78.1 ± 0.4%
  Purity(%) at day 90: 44.1 ± 0.4%
  Purity(%) at day 180: 25.1 ± 0.4%
  Purity(%) at day 360: 0%
[1]; [10]
  Purity(%) at day 1: 98.0 ± 0.3%
  Purity(%) at day 30: 56.3 ± 0.3%
  Purity(%) at day 90: 32.3 ± 0.4%
  Purity(%) at day 180: 3.9 ± 0.4%
  Purity(%) at day 360: 0%
[1]; 25% ethanol, pH 3.0, 25° C.
  Purity(%) at day 1: 98.5 ± 0.1%
  Purity(%) at day 30: 97.4 ± 0.2%
  Purity(%) at day 90: 94.7 ± 0.1%
  Purity(%) at day 180: 90.7 ± 0.2%
  Purity(%) at day 360: 82.7 ± 0.3%
